Data published in PMC6748613 (mAbs, 2019).

B1: bH1 Fab variant Y^H33-M^H98-M^H99-R^L30b (Fab, V domains shown)
VH: not shown
VL: DIQMTQSPSSLSASVGDRVTITCRASQDIPRRISGYVAWYQQKPGKAPKLLIYWGSYLYSGVPSRFSGSGSGTDFTLTISSLQPEDFATYYCQQHYTTPPTFGQGTKVEIK
B2: bH1 Fab variant Y^H33-M^H98-D^H99-R^L30b (Fab, V domains shown)
VH: not shown
VL: DIQMTQSPSSLSASVGDRVTITCRASQDIPRRISGYVAWYQQKPGKAPKLLIYWGSYLYSGVPSRFSGSGSGTDFTLTISSLQPEDFATYYCQQHYTTPPTFGQGTKVEIK
B3: bH1 Fab variant Y^H33-W^H98-D^H99-R^L30b (Fab, V domains shown)
VH: not shown
VL: DIQMTQSPSSLSASVGDRVTITCRASQDIPRRISGYVAWYQQKPGKAPKLLIYWGSYLYSGVPSRFSGSGSGTDFTLTISSLQPEDFATYYCQQHYTTPPTFGQGTKVEIK
B4: bH1 Fab variant Y^H33-W^H98-R^H99-R^L30b (Fab, V domains shown)
VH: not shown
VL: DIQMTQSPSSLSASVGDRVTITCRASQDIPRRISGYVAWYQQKPGKAPKLLIYWGSYLYSGVPSRFSGSGSGTDFTLTISSLQPEDFATYYCQQHYTTPPTFGQGTKVEIK
B5: bH1 Fab variant W^H33-M^H98-G^H99-R^L30b (Fab, V domains shown)
VH: not shown
VL: DIQMTQSPSSLSASVGDRVTITCRASQDIPRRISGYVAWYQQKPGKAPKLLIYWGSYLYSGVPSRFSGSGSGTDFTLTISSLQPEDFATYYCQQHYTTPPTFGQGTKVEIK
B6: bH1 Fab variant W^H33-F^H98-G^H99-R^L30b (Fab, V domains shown)
VH: not shown
VL: DIQMTQSPSSLSASVGDRVTITCRASQDIPRRISGYVAWYQQKPGKAPKLLIYWGSYLYSGVPSRFSGSGSGTDFTLTISSLQPEDFATYYCQQHYTTPPTFGQGTKVEIK
B7: bH1 Fab variant W^H33-M^H98-M^H99-R^L30b (Fab, V domains shown)
VH: EVQLVESGGGLVQPGGSLRLSCAASGFNIKDTWIHWVRQAPGKGLEWVARIYPTNGYTRYADSVKGRFTISADTSKNTAYLQMNSLRAEDTAVYYCSRWGGMMFYAMDYWGQGTLVTVSS
VL: DIQMTQSPSSLSASVGDRVTITCRASQDIPRRISGYVAWYQQKPGKAPKLLIYWGSYLYSGVPSRFSGSGSGTDFTLTISSLQPEDFATYYCQQHYTTPPTFGQGTKVEIK
B8: bH1 Fab variant W^H33-W^H98-M^H99-R^L30b (Fab, V domains shown)
VH: EVQLVESGGGLVQPGGSLRLSCAASGFNIKDTWIHWVRQAPGKGLEWVARIYPTNGYTRYADSVKGRFTISADTSKNTAYLQMNSLRAEDTAVYYCSRWGGWMFYAMDYWGQGTLVTVSS
VL: DIQMTQSPSSLSASVGDRVTITCRASQDIPRRISGYVAWYQQKPGKAPKLLIYWGSYLYSGVPSRFSGSGSGTDFTLTISSLQPEDFATYYCQQHYTTPPTFGQGTKVEIK
B9: bH1 Fab variant W^H33-M^H98-D^H99-R^L30b (Fab, V domains shown)
VH: EVQLVESGGGLVQPGGSLRLSCAASGFNIKDTWIHWVRQAPGKGLEWVARIYPTNGYTRYADSVKGRFTISADTSKNTAYLQMNSLRAEDTAVYYCSRWGGMDFYAMDYWGQGTLVTVSS
VL: DIQMTQSPSSLSASVGDRVTITCRASQDIPRRISGYVAWYQQKPGKAPKLLIYWGSYLYSGVPSRFSGSGSGTDFTLTISSLQPEDFATYYCQQHYTTPPTFGQGTKVEIK
B10: bH1 Fab variant W^H33-F^H98-D^H99-R^L30b (Fab, V domains shown)
VH: EVQLVESGGGLVQPGGSLRLSCAASGFNIKDTWIHWVRQAPGKGLEWVARIYPTNGYTRYADSVKGRFTISADTSKNTAYLQMNSLRAEDTAVYYCSRWGGFDFYAMDYWGQGTLVTVSS
VL: DIQMTQSPSSLSASVGDRVTITCRASQDIPRRISGYVAWYQQKPGKAPKLLIYWGSYLYSGVPSRFSGSGSGTDFTLTISSLQPEDFATYYCQQHYTTPPTFGQGTKVEIK
B11: bH1 Fab variant W^H33-W^H98-D^H99-R^L30b (Fab, V domains shown)
VH: EVQLVESGGGLVQPGGSLRLSCAASGFNIKDTWIHWVRQAPGKGLEWVARIYPTNGYTRYADSVKGRFTISADTSKNTAYLQMNSLRAEDTAVYYCSRWGGWDFYAMDYWGQGTLVTVSS
VL: DIQMTQSPSSLSASVGDRVTITCRASQDIPRRISGYVAWYQQKPGKAPKLLIYWGSYLYSGVPSRFSGSGSGTDFTLTISSLQPEDFATYYCQQHYTTPPTFGQGTKVEIK

Each binder was assayed against vascular endothelial growth factor (VEGF)-A, isoform 165 (Homo sapiens, UniProt P15692-4) (assay: SPR).

ΔΔG_bind against the parental Fab [kcal/mol] | Binder
-1.71 | B1
-1.58 | B2
-1.88 | B3
-0.97 | B4
-1.51 | B5
-1.09 | B6
-2.27 | B7
-2.07 | B8
-1.89 | B9
-2.04 | B10
-2.57 | B11
